# Results: US6410255B1, “Optical probes and assays” (priority 1999, dated 2002)
# pIC50: −log10 of the molar value. Where no end group is shown, it is not given here. The star is where a group is joined. FITC = O=C1OC2(c3ccc(O)cc3Oc3cc(O)ccc32)c2ccc(NC(=S)*)cc21
# What was measured:
# Format in all cases: biochemical
# protein kinase A = protein kinase A (Homo sapiens, UniProt P17612); assay: Protein kinase A inhibitor assay with optical probe; conditions: inhibitor 10 μM, ATP 10 μM
# Protocol: […] After one hour incubation at 30 C, chymotrypsin to a final concentration of 0.8 nM was added and the 460/530 ratio was determined after one hour, as described above (Example 6).
# PTP-B = assay: Inhibition of protein tyrosine phosphatase with phosphorylated Src-2 probe; conditions: read-out: apparent IC50
# Protocol: (§1) Optical probes were first phosphorylated to completion as described above, and samples of phosphorylated optical probe, at a final concentration of 500 nM, were incubated with various concentrations of protein tyrosine phosphatase-B (PTP-B) agarose (Upstate Biotechnology) for 20 minutes at 30 C in 0.1×PBS. At the required time interval, PTP-B-agarose was removed by a brief microfuige spin prior to transfer to 96-well Cytofluor plates for fluorescence measurements, after addition of chymotrypsin (100 nM), as described in Example 1.
# Src kinase = molecular target: T1, Src kinase (Homo sapiens, UniProt P12931); assay: Src kinase phosphorylation of optical probes; conditions: fluorescence after protease incubation; read-out: apparent Km with respect to the Src kinase
# T1 construct: purchased Upstate Biotechnology
# [1] = tested on: protein tyrosine phosphatase-B (PTP-B); assay: Dephosphorylation of phosphorylated optical probes by PTP-B; conditions: for Fluorescence emission ratio of peptide after protease treatment: phosphorylated probe 500 nM, 20 minutes at 30 C
# Protocol: as §1
# In this experiment, the relative rates of dephosphorylation of the phosphorylated Src-2-specific substrate (SEQ. ID. NO: 29) and an abl-specific (SEQ. I.D. No. 4) substrate optical probes by the protein tyrosine phosphatase PTP-B were compared.
# chymotrypsin = chymotrypsin (Bos taurus, UniProt P00766); assay: Chymotrypsin cleavage of optical probe with or without protein kinase A phosphorylation; conditions: for 460/530 emission ratio, Non-phosphorylated Optical probe / 460/530 emission ratio, Phosphorylated Optical probe: 0.8 nM chymotrypsin
# Protocol: ID. NO: 12, below, (the P′1, position with respect to the protease cleavage site of chymotrypsin).
# The peptide ([…], SEQ. ID. NO: 12) was labeled with fluorescein isothiocyanate at the N-termninus and 7-hydroxycoumarin-3-carboxamide at the C-terminus as described above. To determine the relative proteolytic activity of the phosphorylated and non-phosphorylated optical probes, samples of both were prepared. […] Mock kinase reactions with no ATP were used to create non-phosphorylated, control samples. In both cases, the samples were diluted 10 fold with buffer containing 50 mM HEPES, pH 7.5, 10 mM CaCl2 and 0.01% Brij-35, and incubated with 0.8 nM chymotrypsin.
# protein kinase C = assay: Proteolytic susceptibility of optical probe after protein kinase C phosphorylation; conditions: chymotrypsin
# Source text: To measure protein kinase C activity using the optical probes of the present invention, a peptide ([…], SEQ. ID. NO: 12) was designed in which phosphorylation by protein kinase C occurred at the P′1 position (underlined in SEQ. ID. NO: 12) with respect to the scissile bond cleaved by chymotrypsin. This enabled an optimal protein kinase C recognition motif to placed within the optical probe sequence, and to create a site of phosphorylation that modulated the proteolytic sensitivity of the substrate towards chymotrypsin.
# caspase-3 = molecular target: T2, caspase-3 (Homo sapiens, UniProt P42574); assay: Caspase-3 cleavage of optical probe with or without ERK2 phosphorylation; conditions: 30 minutes exposure to caspase-3
# T2 construct: purchased Upstate Biotechnology
# T2 sequence (P42574 29-175 limits assumed): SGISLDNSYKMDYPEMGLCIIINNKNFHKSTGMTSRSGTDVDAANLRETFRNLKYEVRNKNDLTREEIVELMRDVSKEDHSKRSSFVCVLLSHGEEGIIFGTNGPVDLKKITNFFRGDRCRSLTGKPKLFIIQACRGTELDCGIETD
# T2 sequence (P42574 176-277 limits assumed): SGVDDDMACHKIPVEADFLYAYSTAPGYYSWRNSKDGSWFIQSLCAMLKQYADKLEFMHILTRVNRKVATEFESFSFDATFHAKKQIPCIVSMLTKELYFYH
# Protocol: To determine how phosphorylation on serine in the optical probe (SEQ. ID. NO: 24) effected the rate of caspase-3 cleavage, samples of phosphorylated and control (non-phosphorylated) optical probes were treated with the protease caspase-3. Phosphorylated samples of the optical probe (70 pmol) were prepared by 8 hour to overnight incubation with ERK2 kinase (Biomol). Reactions were typically performed in 10 μl using 200-500 μM ATP and 50-200 ng ERK2 in a buffer consisting of 50 mM HEPES, pH 7.5, 10 mM MgCl2, 1 mM EGTA, and 1 mM DTT at 30° C. Mock kinase reactions were performed for preparation of control (non-phosphorylated) optical probe as above, except ATP was omitted. To monitor cleavage of the optical probes by caspase-3, 10 μL volumes of phosphorylated and control (non-phosphorylated) samples of the optical probe were placed in individual wells of a 96-well multiwell plate. Caspase-3 cleavage reactions were carried out in these samples after dilution to 100 μL in a buffer consisting of 100 mM HEPES, pH 7.5, 5 mM DTT, 0.5 mM EDTA, 20% glycerol, 0.01% Brij-35, and 50-100 ng caspase-3 (Upstate Biotechnology), and incubated at room temperature. Emission readings were taken at 5 minute intervals during the course of the caspase-3 incubation using a Cytofluor plate reader as described in Example 1.
compound,measurement,setting,value
O=S(=O)(NCCNC/C=C/c1ccc(Br)cc1)c1cccc2cnccc12 [H-89],inhibition of protein kinase A activity,protein kinase A,almost complete inhibition
"[O]=[V]([OH])([OH])[OH] [Ortho-vanadate, orthovanadate]",pIC50,PTP-B,6.38
"GEEEIYGVIEK [Src-2, fluorescently labeled optical probe for Src kinase; phosphorylated form is the PTP-B substrate]",Km,Src kinase,19 µM
same,Fluorescence emission ratio of peptide after protease treatment,[1]; Log concentration of PTP-B −7.7,17.7
same,Fluorescence emission ratio of peptide after protease treatment,[1]; Log concentration of PTP-B −8.7,17.6
same,Fluorescence emission ratio of peptide after protease treatment,[1]; Log concentration of PTP-B −9.7,15.8
same,Fluorescence emission ratio of peptide after protease treatment,[1]; Log concentration of PTP-B −10.7,5.40
same,Fluorescence emission ratio of peptide after protease treatment,[1]; Log concentration of PTP-B −11.7,1.99
same,Fluorescence emission ratio of peptide after protease treatment,[1]; Log concentration of PTP-B −12.7,1.75
same,Fluorescence emission ratio of peptide after protease treatment,[1]; Log concentration of PTP-B −13.7,1.62
same,Fluorescence emission ratio of peptide after protease treatment,[1]; Log concentration of PTP-B −14.7,1.60
same,kcat,"[1]; phosphorylated probe, PTP-B",79 s⁻¹
same,Km,"[1]; phosphorylated probe, PTP-B, Michaelis-Menten plot, read-out: apparent Km",1.3 µM
"RRRKFSLRRKA ({FITC}-RRRKFSLRRKA; not fully specified (residue 6, C-terminus)) [SEQ. ID. NO: 12, peptide labeled with fluorescein isothiocyanate at N-terminus and 7-hydroxycoumarin-3-carboxamide at C-terminus; protein kinase A and C probe]","460/530 emission ratio, Non-phosphorylated Optical probe",chymotrypsin; time of cleavage 0 minutes,0.34
same,"460/530 emission ratio, Phosphorylated Optical probe",chymotrypsin; time of cleavage 0 minutes,0.33
same,"460/530 emission ratio, Non-phosphorylated Optical probe",chymotrypsin; time of cleavage 10 minutes,3.15
same,"460/530 emission ratio, Phosphorylated Optical probe",chymotrypsin; time of cleavage 10 minutes,0.54
same,"460/530 emission ratio, Non-phosphorylated Optical probe",chymotrypsin; time of cleavage 20 minutes,6.71
same,"460/530 emission ratio, Phosphorylated Optical probe",chymotrypsin; time of cleavage 20 minutes,0.78
same,"460/530 emission ratio, Phosphorylated Optical probe",chymotrypsin; time of cleavage 30 minutes,1.02
same,"460/530 emission ratio, Phosphorylated Optical probe",chymotrypsin; time of cleavage 40 minutes,1.27
same,"460/530 emission ratio, Non-phosphorylated Optical probe",chymotrypsin; time of cleavage 50 minutes,13.34
same,"460/530 emission ratio, Phosphorylated Optical probe",chymotrypsin; time of cleavage 50 minutes,1.53
same,"460/530 emission ratio, Phosphorylated Optical probe",chymotrypsin; time of cleavage 60 minutes,1.78
same,Fold difference in ratios,chymotrypsin; time of cleavage 0 minutes,1.0
same,Fold difference in ratios,chymotrypsin; time of cleavage 10 minutes,5.8
same,Fold difference in ratios,chymotrypsin; time of cleavage 20 minutes,8.6
same,Fold difference in ratios,chymotrypsin; time of cleavage 30 minutes,9.7
same,Fold difference in ratios,chymotrypsin; time of cleavage 40 minutes,9.5
same,Fold difference in ratios,chymotrypsin; time of cleavage 50 minutes,8.7
same,Fold difference in ratios,chymotrypsin; time of cleavage 60 minutes,7.9
same,effect of phosphorylation by protein kinase C on proteolytic susceptibility of the substrate,protein kinase C,significantly modulated
"RVDEPFSPGEK (Optical probe with p-Ser in P′(sub 1)) [SEQ. ID. NO: 24, ERK kinase specific optical probe cleaved by caspase-3]",maximal difference in emission ratio of phosphorylated and non-phosphorylated optical probes,caspase-3,over a three fold difference
